Reference: the supplement of paper PMC10567573

B1: ZNF24 (parent)
chain: YGETCFPKGRFERKRNPSRKKQHI

Variants of: B1
Assay: protein stability index of a GFP-peptide fusion (GPS, HEK-293T) (PSI 1-6); higher = more stable
Details: c terminus: a fixed tail appended
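Also: lentivirally expressed fusions sorted by FACS into six bins by GFP to DsRed ratio, PSI derived from sequencing read proportions per bin multiplied by bin number.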

Protein stability index: each site, then its substitutions
G9: Y 3.75; C 1.98; L 2.12; V 1.72; W 2.15; N 3.06
E12: F 2; D 3.26; K 2.91; Y 2.46; P 3.11; R 3.88; S 2.85; V 2.16
E3: A 2.4; S 2.04; G 2; I 2.71; Q 3.2; K 3.11; T 2.62; P 2.54
N16: F 2.23; I 2.7; K 2.9; S 2.92; L 2.49; P 2.31
R10: D 3.66; N 2.93; S 2.82; E 3.07; T 3.23; V 2.24
P7: T 3.02; V 3.12; K 3.35; N 3.69
F6: W 1.77; P 4.35; Q 4.02; C 3.87; L 3.79; I 3.61
G2: N 3.65; M 3; P 2.89; I 1.76; Y 2.58; V 2.74; H 2.15; L 2.58
P17: T 3.09; Q 2.95; N 3; M 2.79; L 2.5; E 2.93; Y 2.34; D 3.58
F11: K 3.13; E 3.16; W 2.2; G 3.32; H 3.05; I 2.59; N 3.33; Q 3.41
R13: I 2.32; C 2.33; L 2.58; K 2.9; D 2.93; E 3.1; V 2.19; G 2.22; Y 2.25; P 3
C5: S 3.7; D 2.67; Q 3.15; N 2.43
H23: Y 2.76; W 2.3; P 3.1; G 3.25; Q 2.95; L 2.57; T 2.43
K14: G 2.92; N 3.48; Y 2.89; M 2.7; H 2.51; P 3.18; Q 3.1; W 2.34; R 2.8; F 2.55; S 2.65; D 3.63
Y1: R 3.63; S 4.4; K 3.75; F 1.9; A 4.36; M 3.99; V 4.09
K21: T 2.97; F 2.09; Q 2.59; P 2.61; Y 3.23; A 2.78; W 2.17; N 3.23
T4: Y 2.09; M 2.47; E 3.24; W 1.02; S 3.43; H 2.98; N 2.37; P 1.89; C 2.12
I24: Y 3; R 2.86; A 3.43
K8: T 2.49; P 2.11; N 1.93; C 1.68; E 2.96; A 2.17
K20: S 3.17; D 3.48; H 3.09; Y 2.76; M 2.08; C 2.1
R15: H 2.84; E 2.93; Y 2.02; L 2.76; F 2.83
S18: A 2.55; P 2.48; I 2.88; C 2.76; M 2.77
R19: I 2; Q 2.26; F 1.83; W 2.42; E 2.56; K 2.82; M 2.89; G 2.69
Q22: S 3.4; D 2.9; A 2.97; V 2.4; E 3.19; K 2.73; I 2.28; C 2.14; R 2.69
